These results are taken from PMC4226653 (Journal of molecular biology, 2012).

Assay [1] concerns the target T1, human Nup88 N-terminal domain (residues 1–493) (human, UniProt Q99567 1-493).
T1 sequence (looked up): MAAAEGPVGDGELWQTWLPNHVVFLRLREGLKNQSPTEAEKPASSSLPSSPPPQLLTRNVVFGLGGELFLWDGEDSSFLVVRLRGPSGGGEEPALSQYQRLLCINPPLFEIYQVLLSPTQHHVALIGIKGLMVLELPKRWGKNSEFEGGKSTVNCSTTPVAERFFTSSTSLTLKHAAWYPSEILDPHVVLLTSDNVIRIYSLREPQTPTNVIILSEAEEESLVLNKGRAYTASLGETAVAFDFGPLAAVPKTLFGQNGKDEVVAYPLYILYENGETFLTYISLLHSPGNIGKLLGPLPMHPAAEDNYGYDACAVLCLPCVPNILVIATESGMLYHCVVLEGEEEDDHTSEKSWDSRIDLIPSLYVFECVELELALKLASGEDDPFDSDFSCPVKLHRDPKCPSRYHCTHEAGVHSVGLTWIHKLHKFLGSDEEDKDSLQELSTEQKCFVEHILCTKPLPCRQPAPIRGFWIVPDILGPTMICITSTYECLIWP
Kind of assay: SEC-MALS.

Assay [2] deals with yNup82^NTD•yNup159^T pair (S. cerevisiae, UniProt P40368 1-452; P40477 1425-1460). Nature of the assay: SEC-MALS.
Sequence of yNup82^NTD•yNup159^T pair (P40368 1-452, chain 1 of 2): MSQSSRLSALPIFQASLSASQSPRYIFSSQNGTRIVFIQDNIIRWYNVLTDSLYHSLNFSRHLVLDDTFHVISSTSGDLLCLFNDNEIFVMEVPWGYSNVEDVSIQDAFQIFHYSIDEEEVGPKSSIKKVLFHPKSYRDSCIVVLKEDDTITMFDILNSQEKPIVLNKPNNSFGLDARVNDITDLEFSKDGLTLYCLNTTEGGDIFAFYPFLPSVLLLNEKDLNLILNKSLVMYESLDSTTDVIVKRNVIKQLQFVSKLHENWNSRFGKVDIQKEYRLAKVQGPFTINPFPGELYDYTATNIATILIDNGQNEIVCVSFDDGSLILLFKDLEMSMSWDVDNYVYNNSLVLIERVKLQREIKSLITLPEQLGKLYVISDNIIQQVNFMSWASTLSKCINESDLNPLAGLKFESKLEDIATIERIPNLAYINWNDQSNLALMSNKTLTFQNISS
Sequence of yNup82^NTD•yNup159^T pair (P40477 1425-1460, chain 2 of 2): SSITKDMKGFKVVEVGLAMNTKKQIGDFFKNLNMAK

B1: mouse Nup98 autoproteolytic domain (residues 732–880) (domain or fragment, UniProt Q6PFD9 732-880, looked up)
chain: AGIVLTKVGYYTIPSMDDLAKITNEKGECIVSDFTIGRKGYGSIYFEGDVNLTNLNLDDIVHIRRKEVIVYVDDNQKPPVGEGLNRKAEVTLDGVWPTDKTSRCLIKSPDRLADINYEGRLEAVSRKQGAQFKEYRPETGSWVFKVSHF
Regarding B1, the “stoichiometry N” value in assay [1] and in assay [2] was 1 in each case.
